According to PMC3843708, “Mutational Analysis of Sclerostin Shows Importance of the Flexible Loop and the Cystine-Knot for Wnt-Signaling Inhibition” (PLoS ONE, 2013):
Positions count from the first letter of the chain named. Numbers in names are those of the source.

Experiments:
[1] = target: LRP6 E1E2 (Homo sapiens) (UniProt O75581); conditions: cited from earlier work
[2] = target: LRP6 E3E4 (Homo sapiens) (UniProt O75581); conditions: cited from earlier work
[3] = target: LRP6 second propeller domain (Homo sapiens) (UniProt O75581); conditions: cited from earlier work
[4] = target: LRP6 first propeller domain (Homo sapiens) (UniProt O75581); conditions: cited from earlier work
[5] = target: human LRP6 (human, UniProt O75581 20-1613); experiment: cell-based or functional assay
[6] = target: T1, human LRP6 protein fragment comprising propeller domains E1 and E2 (LRP6E1E2) (human, UniProt O75581 20-630); experiment: cell-based or functional assay
T1 sequence (looked up): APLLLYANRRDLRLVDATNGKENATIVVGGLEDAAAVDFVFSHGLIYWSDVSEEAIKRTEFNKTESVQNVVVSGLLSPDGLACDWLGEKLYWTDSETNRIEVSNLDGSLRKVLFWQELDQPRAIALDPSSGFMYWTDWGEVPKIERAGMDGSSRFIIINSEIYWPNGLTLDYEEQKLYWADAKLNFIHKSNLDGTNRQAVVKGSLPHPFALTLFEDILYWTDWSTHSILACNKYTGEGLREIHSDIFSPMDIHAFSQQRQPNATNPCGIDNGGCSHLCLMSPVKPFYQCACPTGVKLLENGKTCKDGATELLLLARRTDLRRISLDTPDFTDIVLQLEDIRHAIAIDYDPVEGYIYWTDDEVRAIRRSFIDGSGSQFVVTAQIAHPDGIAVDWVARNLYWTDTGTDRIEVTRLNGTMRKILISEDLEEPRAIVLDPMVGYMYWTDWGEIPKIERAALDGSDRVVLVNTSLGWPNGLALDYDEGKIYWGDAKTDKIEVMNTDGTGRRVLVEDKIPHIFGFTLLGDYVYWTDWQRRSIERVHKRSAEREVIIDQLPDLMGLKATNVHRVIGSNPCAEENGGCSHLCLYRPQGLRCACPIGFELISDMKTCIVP

Sequence of LRP6 E3E4 (Homo sapiens) (O75581 631-1246): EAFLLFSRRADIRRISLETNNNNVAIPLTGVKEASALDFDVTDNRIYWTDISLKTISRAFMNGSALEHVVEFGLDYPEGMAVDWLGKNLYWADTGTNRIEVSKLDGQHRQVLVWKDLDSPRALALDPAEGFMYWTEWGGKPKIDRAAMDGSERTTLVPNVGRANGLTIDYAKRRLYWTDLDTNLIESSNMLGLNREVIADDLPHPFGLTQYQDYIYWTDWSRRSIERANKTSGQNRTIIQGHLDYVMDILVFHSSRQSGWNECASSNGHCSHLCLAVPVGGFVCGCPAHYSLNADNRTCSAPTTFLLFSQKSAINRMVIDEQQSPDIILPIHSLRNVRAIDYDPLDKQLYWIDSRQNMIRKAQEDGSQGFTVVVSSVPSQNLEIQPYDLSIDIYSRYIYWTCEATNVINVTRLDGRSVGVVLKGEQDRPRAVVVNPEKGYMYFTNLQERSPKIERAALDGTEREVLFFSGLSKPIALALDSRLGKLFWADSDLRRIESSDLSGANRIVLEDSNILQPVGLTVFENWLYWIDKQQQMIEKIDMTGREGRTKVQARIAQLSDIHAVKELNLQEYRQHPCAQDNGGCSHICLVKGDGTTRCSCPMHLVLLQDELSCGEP

Dkk1 (from UniProt O94907)
Kd [1]: 60 nM
Kd [2]: 60 nM

Sclerostin (from UniProt Q9BQB4)
Kd [3]: 1300 nM
Kd [4]: 60 nM

B1: wildtype full-length murine Sclerostin (natural protein, UniProt Q99P68 24-211, looked up)
chain: QGWQAFRNDATEVIPGLGEYPEPPPENNQTMNRAENGGRPPHHPYDAKDVSEYSCRELHYTRFLTDGPCRSAKPVTELVCSGQCGPARLLPNAIGRVKWWRPNGPDFRCIPDRYRAQRVQLLCPGGAAPRSRKVRLVASCKCKRLTRFHNQSELKDFGPETARPQKGRKPRPGARGAKANQAELENAY
modifications: 125I-iodinated (Chloramine T) where used as radioligand; biotinylated (EZ-Link Sulfo-NHS-LC-Biotin, molar ratio 1:1.5) in the pull-down
IC50 of inhibition of Wnt1-driven SuperTOPFlash luciferase reporter, HEK-293TSA M50 cells transfected with mWnt1 [5]: 10 nM

B2: Sclerostin C84AC142R (natural protein, murine, UniProt Q99P68 24-211, looked up)
chain: B1 chain with C84A, C142R
modifications: biotinylated (EZ-Link Sulfo-NHS-LC-Biotin, molar ratio 1:1.5) in the pull-down
fold decrease against wildtype of the efficiency to inhibit Wnt1-driven SuperTOPFlash luciferase reporter (supernatants of HEK Freestyle cells expressing the variant) [6]: 10 fold

B3: Sclerostin I94A (natural protein, murine, UniProt Q99P68 24-211, looked up)
chain: B1 chain with I94A
IC50 of inhibition of Wnt1-driven SuperTOPFlash luciferase reporter, HEK-293TSA M50 cells transfected with mWnt1 [5]: 26.9 nM

B4: Sclerostin N92A (natural protein, murine, UniProt Q99P68 24-211, looked up)
chain: B1 chain with N92A
IC50 of inhibition of Wnt1-driven SuperTOPFlash luciferase reporter, HEK-293TSA M50 cells transfected with mWnt1 [5]: 196 nM

B5: Sclerostin Alaloop (natural protein, murine, UniProt Q99P68 24-211, looked up)
chain: B1 chain with L90S, N92G, I94S, R96A, V97R, K98S, W99G, W100S, R101A, N103A
modifications: 125I-iodinated (Chloramine T) where used as radioligand
IC50 of inhibition of Wnt1-driven SuperTOPFlash luciferase reporter, HEK-293TSA M50 cells transfected with mWnt1 [5]: 831 nM
IC50 of inhibition of Wnt3a-driven SuperTOPFlash luciferase reporter, HEK-293TSA M50 cells with 1.5 nM mWnt3a [5]: 1110 nM

B6: Sclerostin ΔLoop (natural protein, murine, UniProt Q99P68 24-211, looked up)
chain: QGWQAFRNDATEVIPGLGEYPEPPPENNQTMNRAENGGRPPHHPYDAKDVSEYSCRELHYTRFLTDGPCRSAKPVTELVCSGQCGPARLGSGPDFRCIPDRYRAQRVQLLCPGGAAPRSRKVRLVASCKCKRLTRFHNQSELKDFGPETARPQKGRKPRPGARGAKANQAELENAY
modifications: 125I-iodinated (Chloramine T) where used as radioligand; biotinylated (EZ-Link Sulfo-NHS-LC-Biotin, molar ratio 1:1.5) in the pull-down
IC50 of inhibition of Wnt1-driven SuperTOPFlash luciferase reporter, HEK-293TSA M50 cells transfected with mWnt1 [5]: 806 nM
IC50 of inhibition of Wnt3a-driven SuperTOPFlash luciferase reporter, HEK-293TSA M50 cells with 1.5 nM mWnt3a [5]: 655 nM
